From US20110294738A1, “PTHR1 RECEPTOR COMPOUNDS” (priority 2008, published 2011)
* marks the point of attachment. Palmitoyl = CCCCCCCCCCCCCCCC(=O)*

Target: PTHR1 receptor
Sequence (P25961 whole entry): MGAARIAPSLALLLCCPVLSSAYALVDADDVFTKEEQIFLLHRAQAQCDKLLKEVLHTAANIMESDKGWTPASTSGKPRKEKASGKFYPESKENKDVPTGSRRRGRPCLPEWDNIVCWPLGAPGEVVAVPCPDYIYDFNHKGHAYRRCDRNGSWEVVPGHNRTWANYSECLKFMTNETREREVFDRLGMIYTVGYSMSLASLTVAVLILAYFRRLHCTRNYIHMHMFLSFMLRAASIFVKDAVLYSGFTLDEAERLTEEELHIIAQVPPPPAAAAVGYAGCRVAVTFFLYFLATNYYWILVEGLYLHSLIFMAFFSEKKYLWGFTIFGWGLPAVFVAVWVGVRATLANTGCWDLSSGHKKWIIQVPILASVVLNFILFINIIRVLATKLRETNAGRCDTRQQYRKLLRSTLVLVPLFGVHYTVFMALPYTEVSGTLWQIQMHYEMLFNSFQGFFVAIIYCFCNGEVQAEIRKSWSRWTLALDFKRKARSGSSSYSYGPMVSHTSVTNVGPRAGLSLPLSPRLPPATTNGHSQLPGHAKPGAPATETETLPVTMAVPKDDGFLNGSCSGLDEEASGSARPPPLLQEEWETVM

Row | Binder | Fold Shift of EC50 [fold] | Inhibition of Maximal Response [%]
1 | Palmitoyl-LYLHSLIFMAFFSEKKYLWGFT-NH2 (SMILES CCCCCCCCCCCCCCCC(=O)N[C@@H](CC(C)C)C(=O)N[C@@H](Cc1ccc(O)cc1)C(=O)N[C@@H](CC(C)C)C(=O)N[C@@H](Cc1c[nH]cn1)C(=O)N[C@@H](CO)C(=O)N[C@@H](CC(C)C)C(=O)N[C@H](C(=O)N[C@@H](Cc1ccccc1)C(=O)N[C@@H](CCSC)C(=O)N[C@@H](C)C(=O)N[C@@H](Cc1ccccc1)C(=O)N[C@@H](Cc1ccccc1)C(=O)N[C@@H](CO)C(=O)N[C@@H](CCC(=O)O)C(=O)N[C@@H](CCCCN)C(=O)N[C@@H](CCCCN)C(=O)N[C@@H](Cc1ccc(O)cc1)C(=O)N[C@@H](CC(C)C)C(=O)N[C@@H](Cc1c[nH]c2ccccc12)C(=O)NCC(=O)N[C@@H](Cc1ccccc1)C(=O)N[C@H](C(N)=O)[C@@H](C)O)[C@@H](C)CC) [Compound 34] | 1.2 | 4.2
2 | Palmitoyl-TNAARSDTRQQYRKLL-NH2 (SMILES CCCCCCCCCCCCCCCC(=O)N[C@H](C(=O)N[C@@H](CC(N)=O)C(=O)N[C@@H](C)C(=O)N[C@@H](C)C(=O)N[C@@H](CCCNC(=N)N)C(=O)N[C@@H](CO)C(=O)N[C@@H](CC(=O)O)C(=O)N[C@H](C(=O)N[C@@H](CCCNC(=N)N)C(=O)N[C@@H](CCC(N)=O)C(=O)N[C@@H](CCC(N)=O)C(=O)N[C@@H](Cc1ccc(O)cc1)C(=O)N[C@@H](CCCNC(=N)N)C(=O)N[C@@H](CCCCN)C(=O)N[C@@H](CC(C)C)C(=O)N[C@@H](CC(C)C)C(N)=O)[C@@H](C)O)[C@@H](C)O) [Compound 80] | 2.3 | 0.8
3 | Palmitoyl-TNAGRSDTRAQYRKLL-NH2 (SMILES CCCCCCCCCCCCCCCC(=O)N[C@H](C(=O)N[C@@H](CC(N)=O)C(=O)N[C@@H](C)C(=O)NCC(=O)N[C@@H](CCCNC(=N)N)C(=O)N[C@@H](CO)C(=O)N[C@@H](CC(=O)O)C(=O)N[C@H](C(=O)N[C@@H](CCCNC(=N)N)C(=O)N[C@@H](C)C(=O)N[C@@H](CCC(N)=O)C(=O)N[C@@H](Cc1ccc(O)cc1)C(=O)N[C@@H](CCCNC(=N)N)C(=O)N[C@@H](CCCCN)C(=O)N[C@@H](CC(C)C)C(=O)N[C@@H](CC(C)C)C(N)=O)[C@@H](C)O)[C@@H](C)O) [Compound 81] | 13.8 | -20.8
4 | Palmitoyl-TNAGRSDARQQYRKLL-NH2 (SMILES CCCCCCCCCCCCCCCC(=O)N[C@H](C(=O)N[C@@H](CC(N)=O)C(=O)N[C@@H](C)C(=O)NCC(=O)N[C@@H](CCCNC(=N)N)C(=O)N[C@@H](CO)C(=O)N[C@@H](CC(=O)O)C(=O)N[C@@H](C)C(=O)N[C@@H](CCCNC(=N)N)C(=O)N[C@@H](CCC(N)=O)C(=O)N[C@@H](CCC(N)=O)C(=O)N[C@@H](Cc1ccc(O)cc1)C(=O)N[C@@H](CCCNC(=N)N)C(=O)N[C@@H](CCCCN)C(=O)N[C@@H](CC(C)C)C(=O)N[C@@H](CC(C)C)C(N)=O)[C@@H](C)O) [Compound 79] | 7.2 | 1.2
5 | Palmitoyl-TNAGRSATRQQYRKLL-NH2 (SMILES CCCCCCCCCCCCCCCC(=O)N[C@H](C(=O)N[C@@H](CC(N)=O)C(=O)N[C@@H](C)C(=O)NCC(=O)N[C@@H](CCCNC(=N)N)C(=O)N[C@@H](CO)C(=O)N[C@@H](C)C(=O)N[C@H](C(=O)N[C@@H](CCCNC(=N)N)C(=O)N[C@@H](CCC(N)=O)C(=O)N[C@@H](CCC(N)=O)C(=O)N[C@@H](Cc1ccc(O)cc1)C(=O)N[C@@H](CCCNC(=N)N)C(=O)N[C@@H](CCCCN)C(=O)N[C@@H](CC(C)C)C(=O)N[C@@H](CC(C)C)C(N)=O)[C@@H](C)O)[C@@H](C)O) [Compound 82] | 23.4 | -21.6

Next, values leading:

Row | Fold Shift of EC50 [fold] | Inhibition of Maximal Response [%] | Binder
6 | 6.9 | 19.5 | Palmitoyl-TNAGRSDTRQQYRKLLFS-NH2 (SMILES CCCCCCCCCCCCCCCC(=O)N[C@H](C(=O)N[C@@H](CC(N)=O)C(=O)N[C@@H](C)C(=O)NCC(=O)N[C@@H](CCCNC(=N)N)C(=O)N[C@@H](CO)C(=O)N[C@@H](CC(=O)O)C(=O)N[C@H](C(=O)N[C@@H](CCCNC(=N)N)C(=O)N[C@@H](CCC(N)=O)C(=O)N[C@@H](CCC(N)=O)C(=O)N[C@@H](Cc1ccc(O)cc1)C(=O)N[C@@H](CCCNC(=N)N)C(=O)N[C@@H](CCCCN)C(=O)N[C@@H](CC(C)C)C(=O)N[C@@H](CC(C)C)C(=O)N[C@@H](Cc1ccccc1)C(=O)N[C@@H](CO)C(N)=O)[C@@H](C)O)[C@@H](C)O) [Compound 85]
7 | 4.1 | 8 | Palmitoyl-TNAGRSDTRQQYRKLLA-NH2 (SMILES CCCCCCCCCCCCCCCC(=O)N[C@H](C(=O)N[C@@H](CC(N)=O)C(=O)N[C@@H](C)C(=O)NCC(=O)N[C@@H](CCCNC(=N)N)C(=O)N[C@@H](CO)C(=O)N[C@@H](CC(=O)O)C(=O)N[C@H](C(=O)N[C@@H](CCCNC(=N)N)C(=O)N[C@@H](CCC(N)=O)C(=O)N[C@@H](CCC(N)=O)C(=O)N[C@@H](Cc1ccc(O)cc1)C(=O)N[C@@H](CCCNC(=N)N)C(=O)N[C@@H](CCCCN)C(=O)N[C@@H](CC(C)C)C(=O)N[C@@H](CC(C)C)C(=O)N[C@@H](C)C(N)=O)[C@@H](C)O)[C@@H](C)O) [Compound 87]
8 | 2 | 21 | Palmitoyl-TNAGRSDTRQQYRALL-NH2 (SMILES CCCCCCCCCCCCCCCC(=O)N[C@H](C(=O)N[C@@H](CC(N)=O)C(=O)N[C@@H](C)C(=O)NCC(=O)N[C@@H](CCCNC(=N)N)C(=O)N[C@@H](CO)C(=O)N[C@@H](CC(=O)O)C(=O)N[C@H](C(=O)N[C@@H](CCCNC(=N)N)C(=O)N[C@@H](CCC(N)=O)C(=O)N[C@@H](CCC(N)=O)C(=O)N[C@@H](Cc1ccc(O)cc1)C(=O)N[C@@H](CCCNC(=N)N)C(=O)N[C@@H](C)C(=O)N[C@@H](CC(C)C)C(=O)N[C@@H](CC(C)C)C(N)=O)[C@@H](C)O)[C@@H](C)O) [Compound 90]
9 | 2.8 | -25 | Palmitoyl-TNAGRSDTRQQYRKLA-NH2 (SMILES CCCCCCCCCCCCCCCC(=O)N[C@H](C(=O)N[C@@H](CC(N)=O)C(=O)N[C@@H](C)C(=O)NCC(=O)N[C@@H](CCCNC(=N)N)C(=O)N[C@@H](CO)C(=O)N[C@@H](CC(=O)O)C(=O)N[C@H](C(=O)N[C@@H](CCCNC(=N)N)C(=O)N[C@@H](CCC(N)=O)C(=O)N[C@@H](CCC(N)=O)C(=O)N[C@@H](Cc1ccc(O)cc1)C(=O)N[C@@H](CCCNC(=N)N)C(=O)N[C@@H](CCCCN)C(=O)N[C@@H](CC(C)C)C(=O)N[C@@H](C)C(N)=O)[C@@H](C)O)[C@@H](C)O) [Compound 88]
10 | 7 | -5.8 | Palmitoyl-TNAGRSDTRQQYRKLLF-NH2 (SMILES CCCCCCCCCCCCCCCC(=O)N[C@H](C(=O)N[C@@H](CC(N)=O)C(=O)N[C@@H](C)C(=O)NCC(=O)N[C@@H](CCCNC(=N)N)C(=O)N[C@@H](CO)C(=O)N[C@@H](CC(=O)O)C(=O)N[C@H](C(=O)N[C@@H](CCCNC(=N)N)C(=O)N[C@@H](CCC(N)=O)C(=O)N[C@@H](CCC(N)=O)C(=O)N[C@@H](Cc1ccc(O)cc1)C(=O)N[C@@H](CCCNC(=N)N)C(=O)N[C@@H](CCCCN)C(=O)N[C@@H](CC(C)C)C(=O)N[C@@H](CC(C)C)C(=O)N[C@@H](Cc1ccccc1)C(N)=O)[C@@H](C)O)[C@@H](C)O) [Compound 83]
11 | 3.6 | 5.2 | Palmitoyl-TNAGRSDTRQQYRKLLFA-NH2 (SMILES CCCCCCCCCCCCCCCC(=O)N[C@H](C(=O)N[C@@H](CC(N)=O)C(=O)N[C@@H](C)C(=O)NCC(=O)N[C@@H](CCCNC(=N)N)C(=O)N[C@@H](CO)C(=O)N[C@@H](CC(=O)O)C(=O)N[C@H](C(=O)N[C@@H](CCCNC(=N)N)C(=O)N[C@@H](CCC(N)=O)C(=O)N[C@@H](CCC(N)=O)C(=O)N[C@@H](Cc1ccc(O)cc1)C(=O)N[C@@H](CCCNC(=N)N)C(=O)N[C@@H](CCCCN)C(=O)N[C@@H](CC(C)C)C(=O)N[C@@H](CC(C)C)C(=O)N[C@@H](Cc1ccccc1)C(=O)N[C@@H](C)C(N)=O)[C@@H](C)O)[C@@H](C)O) [Compound 86]
12 | 2.3 | -20.4 | Palmitoyl-TNAGRSDTRQQYRKAL-NH2 (SMILES CCCCCCCCCCCCCCCC(=O)N[C@H](C(=O)N[C@@H](CC(N)=O)C(=O)N[C@@H](C)C(=O)NCC(=O)N[C@@H](CCCNC(=N)N)C(=O)N[C@@H](CO)C(=O)N[C@@H](CC(=O)O)C(=O)N[C@H](C(=O)N[C@@H](CCCNC(=N)N)C(=O)N[C@@H](CCC(N)=O)C(=O)N[C@@H](CCC(N)=O)C(=O)N[C@@H](Cc1ccc(O)cc1)C(=O)N[C@@H](CCCNC(=N)N)C(=O)N[C@@H](CCCCN)C(=O)N[C@@H](C)C(=O)N[C@@H](CC(C)C)C(N)=O)[C@@H](C)O)[C@@H](C)O) [Compound 89]
13 | 9.1 | -25.2 | Palmitoyl-TNAGRSDTRQQYRKLLK-NH2 (SMILES CCCCCCCCCCCCCCCC(=O)N[C@H](C(=O)N[C@@H](CC(N)=O)C(=O)N[C@@H](C)C(=O)NCC(=O)N[C@@H](CCCNC(=N)N)C(=O)N[C@@H](CO)C(=O)N[C@@H](CC(=O)O)C(=O)N[C@H](C(=O)N[C@@H](CCCNC(=N)N)C(=O)N[C@@H](CCC(N)=O)C(=O)N[C@@H](CCC(N)=O)C(=O)N[C@@H](Cc1ccc(O)cc1)C(=O)N[C@@H](CCCNC(=N)N)C(=O)N[C@@H](CCCCN)C(=O)N[C@@H](CC(C)C)C(=O)N[C@@H](CC(C)C)C(=O)N[C@@H](CCCCN)C(N)=O)[C@@H](C)O)[C@@H](C)O) [Compound 84]
